# Measurements published in US20230250154A1 (CYTONICS, published 2023).
# T1: ADAMTS4 (human, UniProt O75173 213-685, limits assumed)
# T1 sequence (looked up): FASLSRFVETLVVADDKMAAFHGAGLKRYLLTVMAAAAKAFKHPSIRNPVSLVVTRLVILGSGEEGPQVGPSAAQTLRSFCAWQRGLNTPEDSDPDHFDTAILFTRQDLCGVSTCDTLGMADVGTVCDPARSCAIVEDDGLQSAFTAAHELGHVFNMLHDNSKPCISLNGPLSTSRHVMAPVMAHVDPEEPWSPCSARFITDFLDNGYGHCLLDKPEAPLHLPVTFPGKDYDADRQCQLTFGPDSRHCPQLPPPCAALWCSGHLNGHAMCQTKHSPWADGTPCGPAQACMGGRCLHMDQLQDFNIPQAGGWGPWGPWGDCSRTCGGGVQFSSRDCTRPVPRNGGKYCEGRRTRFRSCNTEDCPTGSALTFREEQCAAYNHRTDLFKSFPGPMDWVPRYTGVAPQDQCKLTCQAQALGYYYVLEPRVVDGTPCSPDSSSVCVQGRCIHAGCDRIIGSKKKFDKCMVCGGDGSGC
# T2: ADAMTS5 (human, UniProt Q9UNA0 262-622, limits assumed)
# T2 sequence (looked up): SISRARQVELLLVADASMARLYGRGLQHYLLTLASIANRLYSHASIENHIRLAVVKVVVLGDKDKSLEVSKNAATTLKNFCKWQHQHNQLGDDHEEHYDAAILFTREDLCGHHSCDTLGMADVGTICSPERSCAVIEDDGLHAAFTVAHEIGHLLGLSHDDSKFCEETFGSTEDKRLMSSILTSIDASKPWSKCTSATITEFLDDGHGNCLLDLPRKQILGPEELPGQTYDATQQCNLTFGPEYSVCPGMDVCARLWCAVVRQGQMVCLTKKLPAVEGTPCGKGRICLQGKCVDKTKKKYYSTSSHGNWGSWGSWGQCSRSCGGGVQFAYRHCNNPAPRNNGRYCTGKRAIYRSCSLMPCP
# T3: MMP1 (human, UniProt P03956 100-469, limits assumed)
# T3 sequence (looked up): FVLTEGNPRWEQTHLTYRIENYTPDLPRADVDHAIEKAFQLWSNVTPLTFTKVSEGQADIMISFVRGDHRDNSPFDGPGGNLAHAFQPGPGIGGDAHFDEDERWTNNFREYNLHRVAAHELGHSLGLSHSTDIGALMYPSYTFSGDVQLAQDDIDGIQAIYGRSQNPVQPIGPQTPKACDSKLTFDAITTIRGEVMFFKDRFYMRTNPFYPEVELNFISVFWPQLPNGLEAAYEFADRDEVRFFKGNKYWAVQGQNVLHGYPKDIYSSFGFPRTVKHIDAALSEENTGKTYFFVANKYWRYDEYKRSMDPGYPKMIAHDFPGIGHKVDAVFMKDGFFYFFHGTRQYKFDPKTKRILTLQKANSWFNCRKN
# T4: MMP2 (human, UniProt P08253 110-660, limits assumed)
# T4 sequence (looked up): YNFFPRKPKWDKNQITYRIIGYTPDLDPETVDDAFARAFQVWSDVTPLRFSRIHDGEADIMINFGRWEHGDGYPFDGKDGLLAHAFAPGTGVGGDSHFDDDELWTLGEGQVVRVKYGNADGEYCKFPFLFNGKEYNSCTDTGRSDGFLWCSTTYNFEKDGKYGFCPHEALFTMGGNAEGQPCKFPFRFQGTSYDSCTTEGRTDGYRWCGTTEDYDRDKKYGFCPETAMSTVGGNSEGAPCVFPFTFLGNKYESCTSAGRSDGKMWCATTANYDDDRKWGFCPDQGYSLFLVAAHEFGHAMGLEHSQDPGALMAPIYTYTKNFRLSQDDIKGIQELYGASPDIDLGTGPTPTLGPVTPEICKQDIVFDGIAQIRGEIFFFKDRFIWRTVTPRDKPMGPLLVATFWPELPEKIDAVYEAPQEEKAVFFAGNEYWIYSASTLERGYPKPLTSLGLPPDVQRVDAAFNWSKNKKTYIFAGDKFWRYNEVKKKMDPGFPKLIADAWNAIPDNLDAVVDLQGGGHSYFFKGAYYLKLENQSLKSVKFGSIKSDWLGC
# Tests used:
# Assay in all cases: cell-based or functional assay
# [1] = biological target: Elastase
# [2] = biological target: bovine trypsin (bovine, UniProt P00760 24-246)
# bovine trypsin, sequence (P00760 24-246): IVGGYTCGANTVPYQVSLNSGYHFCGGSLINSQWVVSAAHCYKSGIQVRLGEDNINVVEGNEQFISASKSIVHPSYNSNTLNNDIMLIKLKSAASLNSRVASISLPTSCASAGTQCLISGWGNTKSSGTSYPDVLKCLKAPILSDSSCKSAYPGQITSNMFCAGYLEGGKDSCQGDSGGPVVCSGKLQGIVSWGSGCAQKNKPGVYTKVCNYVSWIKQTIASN
# [3] = biological target: chymotrypsin
# [4] = biological target: T1, ADAMTS4
# [5] = biological target: T2, ADAMTS5
# [6] = biological target: T3, MMP1
# [7] = biological target: MMP8 (human, UniProt P22894 101-467, limits assumed)
# MMP8, sequence (P22894 101-467 limits assumed): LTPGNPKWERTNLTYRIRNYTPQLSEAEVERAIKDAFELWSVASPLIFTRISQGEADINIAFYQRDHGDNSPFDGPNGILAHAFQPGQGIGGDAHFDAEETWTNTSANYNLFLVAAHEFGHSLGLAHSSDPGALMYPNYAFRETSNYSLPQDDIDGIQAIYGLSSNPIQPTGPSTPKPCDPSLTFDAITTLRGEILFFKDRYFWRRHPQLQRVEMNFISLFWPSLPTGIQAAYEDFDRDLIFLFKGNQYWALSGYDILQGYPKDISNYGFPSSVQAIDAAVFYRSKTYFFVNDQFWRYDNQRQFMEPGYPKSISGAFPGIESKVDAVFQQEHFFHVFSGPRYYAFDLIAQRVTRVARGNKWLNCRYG
# [8] = biological target: MMP13 (human, UniProt P45452 104-471, limits assumed)
# [9] = biological target: T4, MMP2
# [10] = biological target: MMP9 (human, UniProt P14780 107-707, limits assumed)
# MMP9, sequence (P14780 107-707 limits assumed): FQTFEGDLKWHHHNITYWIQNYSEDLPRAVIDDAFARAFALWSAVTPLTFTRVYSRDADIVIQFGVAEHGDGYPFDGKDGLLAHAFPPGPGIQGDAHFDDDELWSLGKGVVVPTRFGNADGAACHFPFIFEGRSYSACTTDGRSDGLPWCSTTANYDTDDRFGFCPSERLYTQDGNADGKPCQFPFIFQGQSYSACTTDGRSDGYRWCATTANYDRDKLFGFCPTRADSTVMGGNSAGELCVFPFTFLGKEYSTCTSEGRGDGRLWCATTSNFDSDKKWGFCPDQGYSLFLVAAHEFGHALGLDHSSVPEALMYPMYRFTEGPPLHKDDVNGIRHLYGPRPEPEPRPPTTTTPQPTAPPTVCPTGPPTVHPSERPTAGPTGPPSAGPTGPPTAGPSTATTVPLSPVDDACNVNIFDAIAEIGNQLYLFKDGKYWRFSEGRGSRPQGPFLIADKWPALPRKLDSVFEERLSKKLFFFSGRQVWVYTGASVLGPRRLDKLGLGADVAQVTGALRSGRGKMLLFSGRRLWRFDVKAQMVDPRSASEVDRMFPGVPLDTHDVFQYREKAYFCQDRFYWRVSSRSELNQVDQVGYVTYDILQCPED
# [11] = biological target: MMP3 (human, UniProt P08254 100-477, limits assumed)
# MMP3, sequence (P08254 100-477 limits assumed): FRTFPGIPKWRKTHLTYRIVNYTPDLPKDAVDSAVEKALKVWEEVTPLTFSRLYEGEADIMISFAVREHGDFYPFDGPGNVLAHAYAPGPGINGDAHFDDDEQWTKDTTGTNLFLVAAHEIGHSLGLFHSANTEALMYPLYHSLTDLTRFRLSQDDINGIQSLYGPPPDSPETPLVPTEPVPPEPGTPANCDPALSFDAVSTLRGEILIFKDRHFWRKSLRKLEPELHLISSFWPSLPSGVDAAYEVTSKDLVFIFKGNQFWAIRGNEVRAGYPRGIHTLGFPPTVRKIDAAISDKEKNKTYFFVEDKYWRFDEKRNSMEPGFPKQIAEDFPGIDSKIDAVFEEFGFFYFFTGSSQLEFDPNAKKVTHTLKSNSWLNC
# [12] = biological target: MMP12 (human, UniProt P39900 106-470, limits assumed)
# MMP12, sequence (P39900 106-470 limits assumed): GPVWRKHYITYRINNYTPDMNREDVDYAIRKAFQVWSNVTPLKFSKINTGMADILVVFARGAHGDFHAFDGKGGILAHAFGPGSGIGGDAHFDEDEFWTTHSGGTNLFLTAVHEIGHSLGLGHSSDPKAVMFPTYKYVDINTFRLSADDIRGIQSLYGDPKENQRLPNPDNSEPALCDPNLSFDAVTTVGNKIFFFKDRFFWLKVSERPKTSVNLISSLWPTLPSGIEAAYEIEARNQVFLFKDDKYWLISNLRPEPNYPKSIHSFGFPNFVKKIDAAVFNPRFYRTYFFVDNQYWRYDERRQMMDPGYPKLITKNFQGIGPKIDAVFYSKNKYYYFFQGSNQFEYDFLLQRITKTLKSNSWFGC
Binder,Protease Inhibition (% of WT) [1],Protease Inhibition (% of WT) [2],Protease Inhibition (% of WT) [3],Protease Inhibition (% of WT) [4],Protease Inhibition (% of WT) [5],Protease Inhibition (% of WT) [6],Protease Inhibition (% of WT) [7],Protease Inhibition (% of WT) [8],Protease Inhibition (% of WT) [9],Protease Inhibition (% of WT) [10],Protease Inhibition (% of WT) [11],Protease Inhibition (% of WT) [12]
"Variant A2M, bait region SEQ ID NO 108 (other) SVSGKPQYMVLVPSLLHTETTEKGCVLLSYLNETVTVSASLESVRGNRSLFTDLEAENDVLHCVAFAVPKSSSNEEVMFLTVQVKGPTQEFKKRTTVMVKNEDSLVFVQTDKSIYKPGQTVKFRVVSMDENFHPLNELIPLVYIQDPKGNRIAQWQSFQLEGGLKQFSFPLSSEPFQGSYKVVVQKKSGGRTEHPFTVEEFVLPKFEVQVTVPKIITILEEEMNVSVCGLYTYGKPVPGHVTVSICRKYSDASDCHGEDSQAFCEKFSGQLNSHGCFYQQVKTKVFQLKRKEYEMKLHTEAQIQEEGTVVELTGRQSSEITRTITKLSFVKVDSHFRQGIPFFGQVRLVDGKGVPIPNKVIFIRGNEANYYSNATTDEHGLVQFSINTTNVMGTSLTVRVNYKDRSPCYGYQWVSEEHEEAHHTAYLVFSPSKSFVHLEPMSHELPCGHTQTVQAHYILNGGTLLGLKKLSFYYLIMAKGGIVRTGTHGLLVKQEDMKGHFSISIPVKSDIAPVARLLIYAVLPTGDVIGDSAKYDVENCLANKVDLSFSPSQSLPASHAHLRVTAAPQSVCALRAVDQSVLLMKPDAELSASSVYNLLPEKDLTGFPGPLNDQDDEDCINRHNVYINGITYTPVSSTNEKDMYSFLEDMGLKAFTNSKIRKPKMCPQLEQYEMHGPEGLRVGEAIPMSIPTSEDLVVQIPENFFGVKLRKYFPETWIWDLVVVNSAGVAEVGVTVPDTITEWKAGAFCLSEDAGLGISSTASLRAFQPFFVELTMPYSVIRGEAFTLKATVLNYLPKCIRVSVQLEASPAFLAVPVEKEQAPHCICANGRQTVSWAVTPKSLGNVNFTVSAEALESQELCGTEVPSVPEHGRKDTVIKPLLVEPEGLEKETTFNSLLCPSGGEVSEELSLKLPPNVVEESARASVSVLGDILGSAMQNTQNLLQMPYGCGEQNMVLFAPNIYVLDYLNETQQLTPEIKSKAIGYLNTGYQRQLNYKHYDGSYSTFGERYGRNQGNTWLTAFVLKTFAQARAYIFIDEAHITQALIWLSQRQKDNGCFRSSGSLLNNAIKGGVEDEVTLSAYITIALLEIPLTVTHPVVRNALFCLESAWKTAQEGDHGSHVYTKALLAYAFALAGNQDKRKEVLKSLNEEAVKKDNSVHWERPQKPKAPVGHFYEPQAPSAEVEMTSYVLLAYLTAQPAPTSEDLTSATNIVKWITKQQNAQGGFSSTQDTVVALHALSKYGAATFTRTGKAAQVTIQSSGTFSSKFQVDNNNRLLLQQVSLPELPGEYSMKVTGEGCVYLQTSLKYNILPEKEEFPFALGVQTLPQTCDEPKAHTSFQISLSVSYTGSRSASNMAIVDVKMVSGFIPLKPTVKMLERSNHVSRTEVSSNHVLIYLDKVSNQTLSLFFTVLQDVPVRDLKPAIVKVYDYYETDEFAIAEYNAPCSKDLGNADYKDDDDKGASHHHHHH",50 % of WT,100 % of WT,100 % of WT,50 % of WT,90 % of WT,390 % of WT,40 % of WT,350 % of WT,110 % of WT,70 % of WT,330 % of WT,–
"Variant A2M, bait region SEQ ID NO 96 (other) SVSGKPQYMVLVPSLLHTETTEKGCVLLSYLNETVTVSASLESVRGNRSLFTDLEAENDVLHCVAFAVPKSSSNEEVMFLTVQVKGPTQEFKKRTTVMVKNEDSLVFVQTDKSIYKPGQTVKFRVVSMDENFHPLNELIPLVYIQDPKGNRIAQWQSFQLEGGLKQFSFPLSSEPFQGSYKVVVQKKSGGRTEHPFTVEEFVLPKFEVQVTVPKIITILEEEMNVSVCGLYTYGKPVPGHVTVSICRKYSDASDCHGEDSQAFCEKFSGQLNSHGCFYQQVKTKVFQLKRKEYEMKLHTEAQIQEEGTVVELTGRQSSEITRTITKLSFVKVDSHFRQGIPFFGQVRLVDGKGVPIPNKVIFIRGNEANYYSNATTDEHGLVQFSINTTNVMGTSLTVRVNYKDRSPCYGYQWVSEEHEEAHHTAYLVFSPSKSFVHLEPMSHELPCGHTQTVQAHYILNGGTLLGLKKLSFYYLIMAKGGIVRTGTHGLLVKQEDMKGHFSISIPVKSDIAPVARLLIYAVLPTGDVIGDSAKYDVENCLANKVDLSFSPSQSLPASHAHLRVTAAPQSVCALRAVDQSVLLMKPDAELSASSVYNLLPEKDLTGFPGPLNDQDDEDCINRHNVYINGITYTPVSSTNEKDMYSFLEDMGLKAFTNSKIRKPKMCPQLEQYEMHGPEGLRVGEGEGEGEGFYESDVMGRGHARLVHVEEPHTKLLRKYFPETWIWDLVVVNSAGVAEVGVTVPDTITEWKAGAFCLSEDAGLGISSTASLRAFQPFFVELTMPYSVIRGEAFTLKATVLNYLPKCIRVSVQLEASPAFLAVPVEKEQAPHCICANGRQTVSWAVTPKSLGNVNFTVSAEALESQELCGTEVPSVPEHGRKDTVIKPLLVEPEGLEKETTFNSLLCPSGGEVSEELSLKLPPNVVEESARASVSVLGDILGSAMQNTQNLLQMPYGCGEQNMVLFAPNIYVLDYLNETQQLTPEIKSKAIGYLNTGYQRQLNYKHYDGSYSTFGERYGRNQGNTWLTAFVLKTFAQARAYIFIDEAHITQALIWLSQRQKDNGCFRSSGSLLNNAIKGGVEDEVTLSAYITIALLEIPLTVTHPVVRNALFCLESAWKTAQEGDHGSHVYTKALLAYAFALAGNQDKRKEVLKSLNEEAVKKDNSVHWERPQKPKAPVGHFYEPQAPSAEVEMTSYVLLAYLTAQPAPTSEDLTSATNIVKWITKQQNAQGGFSSTQDTVVALHALSKYGAATFTRTGKAAQVTIQSSGTFSSKFQVDNNNRLLLQQVSLPELPGEYSMKVTGEGCVYLQTSLKYNILPEKEEFPFALGVQTLPQTCDEPKAHTSFQISLSVSYTGSRSASNMAIVDVKMVSGFIPLKPTVKMLERSNHVSRTEVSSNHVLIYLDKVSNQTLSLFFTVLQDVPVRDLKPAIVKVYDYYETDEFAIAEYNAPCSKDLGNADYKDDDDKGASHHHHHH",50 % of WT,100 % of WT,–,250 % of WT,350 % of WT,100 % of WT,50 % of WT,200 % of WT,100 % of WT,70 % of WT,80 % of WT,100 % of WT
